Reference: patent publication US20240101668A1 (WUGEN, published 2024)

Key:
[1] = molecular target: T1, huCD33-G69 stably expressed on Jurkat cells (human, UniProt P20138 18-364); experiment: FACS on cells;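 also: fixed Jurkat lines probed with myc-tagged scFv periplasmic extracts, anti-myc PE flow cytometry, PE MFI fold binned − <2, + 2–10, ++ 10–30, +++ >30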
T1 construct: whole, on cells; >200,000 receptors per cell; also called CD33 Mutant; CD33 R69G
Method: (§1) Jurkat cells were engineered to stably express either the huCD33-R69 or huCD33-G69 variant at >200,000 receptors per cell. Parental, huCD33-R69, and huCD33-G69 Jurkat cell lines were stained with differing levels of CellTrace Violet Cell Proliferation Kit (ThermoFisher, cat. #C34557) to barcode each cell line. Barcoded Jurkat cell lines were fixed with paraformaldehyde and incubated with myc-labeled scFv periplasmic extracts and a secondary anti-myc PE-conjugated monoclonal antibody. Appropriate positive and negative controls were used. Stained cells were analyzed by flow cytometry (CytoFLEX, Beckman Coulter, Inc.) and binding was assessed by change in PE mean fluorescence intensity (MFI) of the barcoded cell populations.
(§2) Data is disclosed below in Table 16c, reporting FACS fold change over parental as (−), indicating <2 fold; (+), indicating 2-10 fold; (++), indicating 10-30 fold; and (+++), indicating >30 fold.

[2] = molecular target: T2, huCD33-R69 stably expressed on Jurkat cells (human, UniProt P20138 18-364); experiment: FACS on cells;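 also: fixed Jurkat lines probed with myc-tagged scFv periplasmic extracts, anti-myc PE flow cytometry, PE MFI fold binned − <2, + 2–10, ++ 10–30, +++ >30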
T2 construct: whole, on cells; >200,000 receptors per cell; also called CD33 WT; CD33^ARG69
Method: as §1, §2

[3] = molecular target: T3, huCD33-G69-Fc recombinant protein (human, UniProt P20138 18-259); experiment: BLI;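 also: biolayer interferometry: scFvs captured from periplasmic extracts on anti-V5-loaded streptavidin biosensors, antigen association for 2 min, buffer dissociation for 5 min, 1:1 Langmuir fit giving off-rate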
T3 construct: extracellular domain; also called CD33 R69G
T3 sequence (P20138 18-259 R69G): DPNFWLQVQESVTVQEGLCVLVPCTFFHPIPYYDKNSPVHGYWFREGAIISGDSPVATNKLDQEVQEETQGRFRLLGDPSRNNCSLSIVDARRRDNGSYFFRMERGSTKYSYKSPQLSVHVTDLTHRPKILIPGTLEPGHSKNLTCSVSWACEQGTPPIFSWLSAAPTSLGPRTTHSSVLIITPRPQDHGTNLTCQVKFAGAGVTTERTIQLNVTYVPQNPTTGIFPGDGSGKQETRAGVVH
Method: Discovered scFvs were analyzed for binding to huCD33-R69-His or huCD33-G69-Fc recombinant proteins (for anti-CD33 scFvs; for CLL-1 scFvs, huCLL1-K244-Avi-Tev-His or huCLL1-Q244-Avi-Tev-His were used; for FLT3, huFLT3-T227-His or huFLT3-M227-Fc were used) using BLI on a ForteBio Octet HTX instrument. Streptavidin-coated biosensors were loaded with biotinylated anti-V5 tag monoclonal antibody for 5 min and were then quenched and blocked with 20 μM amine-PEG2-Biotin for 5 min. scFvs were captured on biosensors from scFv clone periplasmic extracts. huCD33 (or huCLL-1, or huFLT3) proteins were then associated with the captured scFvs for 2 minutes, followed by dissociation with buffer (1×HBST [10 mM HEPES pH 7.4, 150 mM NaCl, 0.05% Tween-20], 1 g/L BSA) for 5 minutes. […] Data was fitted with 1:1 Langmuir equation and off-rate values were reported.

T1 sequence (P20138 18-364 R69G): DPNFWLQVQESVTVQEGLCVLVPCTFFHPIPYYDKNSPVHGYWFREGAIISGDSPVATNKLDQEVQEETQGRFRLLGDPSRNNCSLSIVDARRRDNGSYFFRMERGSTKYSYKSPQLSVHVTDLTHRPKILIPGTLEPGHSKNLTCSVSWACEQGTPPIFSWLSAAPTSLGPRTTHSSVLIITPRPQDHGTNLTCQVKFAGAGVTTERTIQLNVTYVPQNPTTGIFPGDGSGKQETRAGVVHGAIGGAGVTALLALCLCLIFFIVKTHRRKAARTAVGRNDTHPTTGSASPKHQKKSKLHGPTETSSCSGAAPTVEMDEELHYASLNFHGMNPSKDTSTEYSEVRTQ
T2 sequence (P20138 18-364): as the sequence (P20138 18-364 R69G) above, with G52R counted along it

FACS geometric mean fold change over Jurkat parental [1] [fold] | FACS geometric mean fold change over Jurkat parental [2] [fold] | binding result [3] | Binder
10 to 30 | 10 to 30 | binds | Polypeptide No. 127 (scFv, V domains shown, scFv) VH: QVQLVQSGAEVKKPGASVKVSCKASGYTFTNHHMHWVRQAPGQGLEWMGMINPSGGSTSYAQKFQGRVTMTRDTSTSTVYMELSSLRSEDTAVYYCARGRPVDIVATYYFDYWGQGTLVTVSS VL: DIQMTQSPSSLSASVGDRVTITCQASQDIRNFLNWYQQKPGKAPKLLIYGASTLHSGVPSRFSGSGSGTDFTLTISSLQPEDFATYYCQQSYSTPLTFGGGTKVEIKR
> 30 | 10 to 30 | binds | Polypeptide No. 122 (scFv, V domains shown, scFv) VH: QVQLVQSGAEVKKPGASVKVSCKASGYTFTDYWLHWVRQAPGQGLEWMGTINPSGGSTSYSHKFQGRVTMTRDTSTSTVYMELSSLRSEDTAVYYCAKEEEGFWSGYAFDYWGQGTLVTVSS VL: not shown
10 to 30 | 10 to 30 | binds | Polypeptide No. 129 (scFv, V domains shown, scFv) VH: EVQLVESGGGLVKPGGSLRLSCAASGFSLRNYWMHWVRQAPGKGLEWVSGISGSGGSTYYADSVKGRFTISRDDSKNTLYLQMNSLKTEDTAVYYCARDYTGVVDYWGQGTLVTVSS VL: not shown
> 30 | 10 to 30 | binds | Polypeptide No. 119 (scFv, V domains shown, scFv) VH: QVQLVQSGAEVKKPGASVKVSCKASGNTLTNDHIHWVRQAPGQGLEWMGWMNPNSGDTGYAQKFQGRVTMTRDTSTSTVYMELSSLRSEDTAVYYCARAGVDTAMVTYYYYGMDVWGQGTTVTVSS VL: not shown
> 30 | > 30 | binds | Polypeptide No. 120 (scFv, V domains shown, scFv) VH: QVQLVQSGAEVKKPGASVKVSCKASGYTFTTYYMHWVRQAPGQGLEWMGWMNPNSGNTGYAQKFQGRVTMTRDTSTSTVYMELSSLRSEDTAVYYCARGHKVDSGYDPYGMDVWGQGTTVTVSS VL: DIQMTQSPSSLSASVGDRVTITCRASQSIGTYLHWYQQKPGKAPKLLIYAISTLQNGVPSRFSGSGSGTDFTLTISSLQPEDFATYYCQQSYSPPLTFGGGTKVEIKR
10 to 30 | 10 to 30 | binds | Polypeptide No. 136 (scFv, V domains shown, scFv) VH: QVQLVQSGAEVKKPGASVKVSCKASGDTLTNHFVHWVRQAPGQGLEWMGWMNPNSGNTGYAQKFQGRVTMTRDTSTSTVYMELSSLRSEDTAVYYCARDPQMGAVAGGFDYWGQGTLVTVSS VL: DIQMTQSPSSLSASVGDRVTITCRASQRIGNWLAWYQQKPGKAPKLLIYAASSLQSGVPSRFSGSGSGTDFTLTISSLQPEDFATYYCQQSYSPPLTFGPGTKVDIKR
10 to 30 | 10 to 30 | binds | Polypeptide No. 128 (scFv, V domains shown, scFv) VH: QVQLVQSGAEVKKPGASVKVSCKASGYTFTNYYIHWVRQAPGQGLEWLGWTNPINGDTGSAQKFQGRVTMTRDTSTSTVYMELSSLRSEDTAVYYCAKEGQLAWADYYYYMDVWGKGTTVTVSS VL: DIQMTQSPSSLSASVGDRVTITCRASQGISSALAWYQQKPGKAPKLLIYAASSLQSGVPSRFSGSGSGTDFTLTISSLQPEDFATYYCQQSYSTPLTFGGGTKVEIKR
> 30 | > 30 | binds | Polypeptide No. 123 (scFv, V domains shown, scFv) VH: EVQLLESGGGLVQPGGSLRLSCAASGFILGNAWMHWVRQAPGKGLEWVASVSGDGSDENYADSVKGRFTISRDNSKNTLYLQMNSLRAEDTAVYYCARDTHDYGDYAPFDYWGQGTLVTVSS VL: DIQMTQSPSSLSASVGDRVTITCQASQDINNYLNWYQQKPGKAPKLLIYAASNLQSGVPSRFSGSGSGTDFTLTISSLQPEDFATYYCQQTYSFPLTFGGGTKVEIKR
10 to 30 | > 30 | binds | Polypeptide No. 126 (scFv, V domains shown, scFv) VH: EVQLLESGGGLVQPGGSLRLSCAASGFTFTTYDMHWVRQAPGKGLEWVAGINWNSVIIDYADSVKGRFTISRDNSKNTLYLQMNSLRAEDTAVYYCAKDLLYYYDSIGAFDIWGQGTMVTVSS VL: DIQMTQSPSSLSASVGDRVTITCRASQSISTWLAWYQQKPGKAPKLLIYAASSLQSGVPSRFSGSGSGTDFTLTISSLQPEDFATYYCQQSDTLPLTFGGGTKVEIKR
> 30 | > 30 | binds | Polypeptide No. 134 (scFv, V domains shown, scFv) VH: QVQLVQSGAEVKKPGASVKVSCKASGYTFDSYLLHWVRQAPGQGLEWMGMINPSGAGTTYAQKFQGRVTMTRDTSTSTVYMELSSLRSEDTAVYYCAKEGSIAAGYYFDSWGQGTLVTVSS VL: DIQMTQSPSSLSASVGDRVTITCRASQSIDSWLAWYQQKPGKAPKLLIYAASSLQSGVPSRFSGSGSGTDFTLTISSLQPEDFATYYCQQSYTTPITFGGGTKVEIKR
10 to 30 | 10 to 30 | binds | Polypeptide No. 130 (scFv, V domains shown, scFv) VH: QVQLVQSGAEVKKPGASVKVSCKASGGTFSNYAISWVRQAPGQGLEWMAWMNPNSGNTGYAQKFQGRVTMTRDTSTSTVYMELSSLRSEDTAVYYCARDGFIGFGELFSAFDIWGQGTMVTVSS VL: DIQMTQSPSSLSASVGDRVTITCRASQSIGTWLAWYQQKPGKAPKLLIYGATRLLSGVPSRFSGSGSGTDFTLTISSLQPEDFATYYCQQSYSTPPTFGQGTKLEIKR
10 to 30 | 10 to 30 | binds | Polypeptide No. 121 (scFv, V domains shown, scFv) VH: QVQLVQSGAEVKKPGASVKVSCKASGDSFTDYYIHWVRQAPGQGLEWMGWMNPNSGNTGYAQQFQGRVTMTRDTSTSTVYMELSSLRSEDTAVYYCARDREYSSSSRYFDLWGRGTLVTVSS VL: DIQMTQSPSSLSASVGDRVTITCRASQNIGNWLAWYQQKPGKAPKLLIYAASTLQSGVPSRFSGSGSGTDFTLTISSLQPEDFATYYCQQSYNSITFGPGTKVDIKR
> 30 | > 30 | binds | Polypeptide No. 124 (scFv, V domains shown, scFv) VH: EVQLVESGGGLVKPGGSLRLSCAASGFTFSSYWMHWVRQAPGKGLEWVAVIWYDGSNKYYADSVKGRFTISRDDSKNTLYLQMNSLKTEDTAVYYCVRDGARSGMDVWGQGTTVTVSS VL: EIVMTQSPATLSVSPGERATLSCRASQSVSTYVAWYQQKPGQAPRLLIYGASTRATGIPARFSGSGSGTEFTLTISSLQSEDFAVYYCQQYYDTPLTFGGGTKVEIKR
10 to 30 | 2 to 10 | binds | Polypeptide No. 132 (scFv, V domains shown, scFv) VH: EVQLLESGGGLVQPGGSLRLSCAASGFTFNNYGMHWVRQAPGKGLEWVSAISGSGGSTYYADSVKGRFTISRDNSKNTLYLQMNSLRAEDTAVYYCAREYMQQPHGGMDVWGQGTTVTVSS VL: EIVMTQSPATLSVSPGERATLSCRASQSVNSYLAWYQQKPGQAPRLLIYGASTRATGIPARFSGSGSGTEFTLTISSLQSEDFAVYYCQQYGSSPLSFGGGTKVEIKR
> 30 | > 30 | binds | Polypeptide No. 125 (scFv, V domains shown, scFv) VH: QVQLVQSGAEVKKPGASVKVSCKASGYSFTTYDIHWVRQAPGQGLEWMGWMNPNSGNTGYAQKFQGRVTMTRDTSTSTVYMELSSLRSEDTAVYYCATDHWVLGGFDYWGQGTLVTVSS VL: DIQMTQSPSSLSASVGDRVTITCQASQDISNYLNWYQQKPGKAPKLLIYAASTLQSGVPSRFSGSGSGTDFTLTISSLQPEDFATYYCQQYSYLPVTFGQGTKLEIKR
2 to 10 | 2 to 10 | binds | Polypeptide No. 133 (scFv, V domains shown, scFv) VH: EVQLLESGGGLVQPGGSLRLSCAASGFTFSSSWMHWVRQAPGKGLEWVSAISSSGDATYYADSVKGRFTISRDNSKNTLYLQMNSLRAEDTAVYYCAKFSDGGAGDSDYWGQGTLVTVSS VL: DIQMTQSPSSLSASVGDRVTITCRASQGISSYLAWYQQKPGKAPKLLIYTASSLQSGVPSRFSGSGSGTDFTLTISSLQPEDFATYYCQQYDNLPITFGQGTRLEIKR
10 to 30 | > 30 | binds | Polypeptide No. 131 (scFv, V domains shown, scFv) VH: QVQLVQSGAEVKKPGASVKVSCKASGGTFSNYAINWVRQAPGQGLEWMGWINPNSGGTDSAQKFQGRVTMTRDTSTSTVYMELSSLRSEDTAVYYCARDSSLALSYGGNSEYYYGMDVWGQGTTVTVSS VL: DIQMTQSPSSLSASVGDRVTITCQASQDISDHLNWYQQKPGKAPKLLIYGASTLQSGVPSRFSGSGSGTDFTLTISSLQPEDFATYYCQQAYSFPWTFGQGTKLEIKR
> 30 | 10 to 30 | binds | Polypeptide No. 135 (scFv, V domains shown, scFv) VH: QVQLVQSGAEVKKPGASVKVSCKASGYSFTTYGITWVRQAPGQGLEWMGWINPNSGNAGYAQKFQGRVTMTRDTSTSTVYMELSSLRSEDTAVYYCASDLAGYSSGYFDLWGRGTLVTVSS VL: not shown
